Experiment: yeast display, Sf9 membrane polyspecificity reagent, FACS + sequencing; frameworks hold sequencing errors
Outline: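 Synthetic nanobody libraries on Saccharomyces cerevisiae BJ5465 were galactose-induced for 36–48 hours, stained 1 hour at 4 °C with 10% biotinylated, detergent-solubilized Sf9 membrane reagent and enriched on streptavidin microbeads. FACS then separated cells into low and high (top ~1%) gates by anti-HA (expression) and streptavidin (reagent binding) fluorescence. Genes were colony-PCR amplified, MiSeq 2 × 250 sequenced and CDR-length filtered. A clone's polyreactivity label is that of its gate of origin.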

Sequence	polyreactivity (PSR sort gate)
QVQLVESGGGLVQAGGSLRLSCAASISSINAMGWYRQAPGKERELVAAIRWSGSSTYYADSVKGRFTISRDNAKNTVYLQMNSLKPEDTAVYYCAARYVRVGYDYWGQGTQVTVSS	high polyreactivity
QVQLVESGGGLVQAGGSLRLSCAASRIIFDDNAMGWYRQAPGKEMELVAAISRRGGSTYYADSVKGRFTISRDNAKNTVYLQMNSLKPEDTAVYYCAATTRTSSLYNYWGQGTQVTVSS	high polyreactivity
QVQLVESGGGLVQAGGSLRLSCAASRIIFYGNAMGWYRQAHGKERELVAAIDQSGDSTYYADSVKGRFTISRDNAKNTVYLQMNSLKPEDTAVYYCAADSLYLAYEYWGQGTQVTVSS	high polyreactivity
QVQLVESGGGLVQAGGSLRLSCAASRITSYPYAMGWSRQGPGKERELVAAISKRGGGTYYADSVKGPFTISRDNAMNTVYLQLNSLKPVDTAVYYCAKSWGPTTYKIVPAYGYWGQGTQVTVSS	high polyreactivity
QVQLVESGGGLVQAGGSLRLSCAASRRIIGAYAMGWDRQAPGKEWELVARISWSGGTTYYADSVKGRFPISRDNAKNTVYLQMNSLKPEDTAVYYCAARYSYYVTGGISKYDYWGQGTQVTVSS	low polyreactivity
QVQLVESGGGLVQAGGSLRLSCAASRRIYYWYVMGWYRQAPGKERELVASISWSGGSTYYADSVKGRFTISRDNAKNTVYLQMNSLKPEDTAVYYCNAGSVYTVSLPGHPYDYWGQGTQVTVSS	low polyreactivity
QVQLVESGGGLVQAGGSLRLSCAASRRTFWNYAMGWYRQAPGKESEFVAVIRFSDGSTYYADSVKGRFTISRDNAKTTVYLQMHSLKPEDTPVYYCAAKGPRRWGSGFDYWGQRTQVTVSS	low polyreactivity
QVQLVESGGGLVQAGGSLRLSCAASRSIFPLYAMGWYRQAPGKERELVAAITYSGGRTYYADSVKGRFTISRDNAKNTVYLQMISLKPEDTAVYYCNTRQRVIDDYWGQGTQVTVSS	high polyreactivity
QVQLVESGGGLVQAGGSLRLSCAASRSIFSQYSRGCYRQAPGKERELVATITWRGGSNTNYADSVKGRFTISRDNAKNTVYLQMNSLKPEDTAVYYCNAAFPYHYRFDYWGQGTQVTVSS	low polyreactivity
QVQLVESGGGLVQAGGSLRLSCAASRSTFEIYAMGWYRPAPGKERELFAAISSGGSTNYADSVKGRFTISRDNAKNTVYLQMKSLITEDTAVYYCVYAIQFYYWGQGTQVTVSS	low polyreactivity
QVQLVESGGGLVQAGGSLRLSCAASRSTFVLYDMGWYRPAPGKERELVAAISRSGDSTYYADSVKGRYTISRDNAKNTVYLQMNSLKPEDTAVYYCAAKRRISTGMDYWGQGTQGTVSS	high polyreactivity
QVQLVESGGGLVQAGGSLRLSCAASRSTIPSYAMGWSRQAPGKERELVASITYSDGTTRYADSVKGRFTISRDNAKNTVYLQMNSLKPEDTAVYYCNAVYYRDGMDYWGQGTQVTVSS	low polyreactivity
QVQLVESGGGLVQAGGSLRLSCAASVFTFLYYAMGWYRQAPGKERELVAAISSTGGTTYYADSVKGRFTISRDNAKNTVYLQMNSLKPEDTAVYYCAADQGVYRTYWFDYWGQGTQVTVSS	high polyreactivity
QVQLVESGGGLVQAGGSLRLSCAASVFTFTVNTMGWYRQAPGKERELVAANSNTGSTKYADSVKGRFTISRDKAKNTLYLQMNSLKPEDTAVFYCAAEPGYYSRPDYRVYRVYYWGQGTQVTVSS	high polyreactivity
QVQLVESGGGLVQAGGSLRLSCAASVFTFYLYAMGWDRQAPGKERELVADITKRGGSTDYADSVKGRFTISRDNAKNTVYLQMNSLKPEDTAVYYCAARGPTFGVDYGYWGQGTQVTVSS	high polyreactivity
QVQLVESGGGLVQAGGSLRLSCAASVIIFQVYAMGWYRQAAGKERELVAAITRRGASTYYADSVKGRFTISRDNPKNTDYLQMNSLKPEETAVYYFNARAYYRLYKSKLGYWGQGTQVTVSS	high polyreactivity
QVQLVESGGGLVQAGGSLRLSCAASVIIFRQYAMGWSRQAPGKERELVAAISGSGGTTYYADSVKGRFTISRDNAKNTVYLQMNSLKPEDTAVYYCAADSSSRGRLDYWGQGTQVTVSS	high polyreactivity
QVQLVESGGGLVQAGGSLRLSCAASVITLFGYTMGWYRQAPGKERELVAAIRRRGVSTYYADSVKGRFTISRDNAKNTVYLQMNSLKPEDTAVYYCAKSLKPYTDYDYWGQGTQVTVSS	high polyreactivity
QVQLVESGGGLVQAGGSLRLSCAASVNTFYGYDMGWYRQAPGKEWELVASITLSGDSTYYADSVKGRFTISRDNEKNTVYLQMNSLKPEDTAVYYCAGVYTYPLGYYHYTYAYWGQGTQVTVSS	low polyreactivity
QVQLVESGGGLVQAGGSLRLSCAASVRIFGVYAMGWYRQAPGKERELVAAITSGGSTTYADSVKGRFTISRDNAKNTVYLQMNSLKPEDTAVYYCNKEPQPFFLYGYWGQGTQVTVSS	low polyreactivity
QVQLVESGGGLVQAGGSLRLSCAASVRIFPHKAMGWYIQAPGKERELVAAISSNGGSTYYADSVKGRFTISRDNAKNTVYLQMNSLKPEDTAVYYCAKYRYFAGDGDYWGQGTQVTVSS	low polyreactivity
QVQLVESGGGLVQAGGSLRLSCAASVRIFPTNAMGWYRQAPGKEREFVAAITWLGGSTYYADSVKGRFTISRDNAKNTVYLQMNRLKPEDTAVYYCAATGHIVFFRAYDYGYWGQGTQVTVSS	low polyreactivity

Sequence	polyreactivity (PSR sort gate)
QVQLVESGGGLVQAGGSLRLSCAASVRIFRFYVMGWYRQAPGKERELVAAISKRGASTSYADSVKGRFTISRDNAKNTVYLQMNSLKPEDTAVYYCAASAKRGEMGYWGQGTQVTVSS	high polyreactivity
QVQLVESGGGLVQAGGSLRLSCAASVRIFSINAMGWYRQAPGKERELVAAINSGGSTHYADSVKGRFTISRDNAKNTVYLQMNSLKPEDTAGYYCAARKTVSYFRVRTFDYWGQGTQVTVSS	low polyreactivity
QVQLVESGGGLVQAGGSLRLSCAASVRTFGQNTMGWYIQAPGKEREFVAAIDFNGGSTYYADSVKGRFTISRDNAKNTVYLQMNSLKPEDTAVYYCAADIYFYYYGSYDYWGQGTQVTVSS	low polyreactivity
QVQLVESGGGLVQAGGSLRLSCAASVSIFQVYAMGWYRQAPGKERELVAAITWSAGSTYADSVKGRFTISRDNAKNTVYLQMNSLKPEDTAVYYSAAYPYVGYVSFSAYDYWGQGTQVTVSS	low polyreactivity
QVQLVESGGGLVQAGGSLRLSCAASVSIFRKNAMGWYRQAPGKERELVAAITYRTGSTYYADSVKGRFTISRDNAKNTVYLQMNSLKPEDTAVYYCAAQTWGSGYGHIGRRRHDYWGQGTQVTVSS	high polyreactivity
QVQLVESGGGLVQAGGSLRLSCAASVSIFYEYTMGWYRQAPGKERELVADITEGDGITYYADSVKGRFTISRDNAKNTVYLQMNSLKPEDTAVYYCNADVVQAVTTHYDYWGQGTQVTVSS	low polyreactivity
QVQLVESGGGLVQAGGSLRLSCAASVSTFRTNAMGWYRQPPGKEREMVAAITLDGGSTYYADSVKGRFTISRDNEKNTVYLQMNSLKPEDTAVYYCAADVVSVVYLPFVNGGDYWGQGTQVTVSS	low polyreactivity
QVQLVESGGGLVQAGGSLRLSCAASVSTFRWYAMGWYRQAPGKERELVAAISWSGSTTYYADSVKGRFTISRDNAKNTVYLQMNSLKPEDTAVYYCAAEVVFFGWNYDYWGQGTQVTVSS	high polyreactivity
QVQLVESGGGLVQAGGSLRLSCAASVSTFVVNAMGWYRQAPGKERELVAAISRSDAITYYADSVKGRFTISRDNAKNTVYLQMNSLKPEDTAVYYCAAELSYRGYPYDYWGQGTQVTVSS	high polyreactivity
QVQLVESGGGLVQAGGSLRLSCAASVTIFGDYTMGWYRQAPGKERELVAAITWSAGRTYYADSVKGRFTISRDNAKNTVYLQMNSLKPEDTAVYYCAAQVPEDTETVDYWGQGTQVTVSS	low polyreactivity
QVQLVESGGGLVQAGGSLRLSCAASVYGMGWYRQAPGKERELVAAISNGGTTYYADSEKGRFTISRDNAKNTVYLQMNSLKPEDTAVYYCADRSWPGGFIYYYWGQGTQVTVSS	low polyreactivity
QVQLVESGGGLVQAGGSLRLSCAASVYTFYWNAMGWYRQAPGKEREFVASFSGTSTYYADSVKGRFTISRDNAKNTVYLQMNSLKPEDTAVYYCNARLTLGPRKYEYWGQGTQVTVSS	low polyreactivity
QVQLVESGGGLVQAGGSLRLSCAASVYTIGLYAMGCYRQAPGKEMELVAAMSWSGGSTYYADSVKGPFTISRDNAKKTVYLQMNSLKPEDTAVYYCAAVPYFSLEMGYWGQGTQVTVSS	low polyreactivity
QVQLVESGGGLVQAGGSLRLSCAASYYAMGWYRQAPAKERELVASISSGGSTNYADSVKGRFTISRDNAKNTVFFQMNSLKPEDTAVYYCAADVADGVWVKIADEYWGQGTQVTVSS	low polyreactivity
QVQLVESGGGLVQAGGSLRLSCAATARIFVRYAMGWYRQAPGKERELVAAISTSGGRTYYADSVKGRFTISRDNAKNTVYLQMNSLKPEDTAVYYCNARIKRPRGVYGGDYWGQGTQVTVSS	high polyreactivity
QVQLVESGGGLVQAGGSLRLSCAATGFIFGYYALGGYRQAPGKERELVAAINKNGGSTYYADSVKGRFTISRDNAKNTVYLQMNSLKPEDTAVYYCAARARGYAWTYDYWGQGTQVTVSS	high polyreactivity
QVQLVESGGGLVQAGGSLRLSCAATGITFYPNDMGWYRQAPGKERELVAAITTNDGDTYYADSVKGRFTISRDNAKNTVYLQMNSLKPEDTAVYYCAADSGSTSEYEYWGQGTQVTVSS	low polyreactivity
QVQLVESGGGLVQAGGSLRLSCAATGLIFSRNAMGWYRQAPGKERELVAAISTGGSTYYADSVKGRFTISRDNAKITVYLQMNSLKPEDTAVYYCAAAPGYIYEYWGQGTQVTVSS	low polyreactivity
QVQLVESGGGLVQAGGSLRLSCAATGLIIPFSAMGWDREPPGKDRDLVAAISWSAGSTYYADSVKGRFTISRDNAKNSVYLHMNSLKPEDTAVYYCATDRNPADFYWGQGTQVTVSS	low polyreactivity
QVQLVESGGGLVQAGGSLRLSCAATGNTFLWYARGWYRQAPGKERELVAAITWSGGRTYYADSVKGRFTISRDNALYTVYLQMHSLKPEDTAVYYFAADYGYFLGGVYFHKVKFDYWGQGTQVTVSS	high polyreactivity
QVQLVESGGGLVQAGGSLRLSCAATGRIFQRNAMGWYRQAPGKERELVAVISKSGGSTYYADSVKGRFTISRDNAKNTVYLQMNSLKPEDTAVYYCATRYFRPGEKYDYWGQGTQVTVSS	low polyreactivity
